Laboratory results from patent US20230203172A1.

Biological target: human IL-4R alpha on cells (TF-1 cells; human peripheral blood mononuclear cells) (human) (UniProt P24394)
Experiment: cell-based or functional assay

IC50 (ng/ml), inhibition of IL-4-induced TF-1 cell proliferation: 138 ng/mL
Substance: Dupilumab (antibody)
